According to patent US20110300229A1, “TREATING OR PREVENTING ROTAVIRUS INFECTION” (FONTERRA CO-OPERATIVE GROUP LIMITED, priority 2007, published 2011):
Marks after values point to notes of the source that are not given here.

What was measured:
human Wa rotavirus = details: cited from earlier work
[1] = system: human rotavirus strain Wa; assay: Rotavirus infection assay in HT29 cells (crystal violet, % uninfected cells); assay type: cell-based
Protocol: The HT29 cell line was used to propagate the human rotavirus strain Wa (neuraminidase resistant) in the presence of 1 μg/ml trypsin in Dulbecco's minimal essential medium (DMEM) supplemented with 10% foetal calf serum and penicillin/streptomycin (100 μg/ml/100 units/ml). Rotavirus was harvested by freeze thawing twice, spun at 750 g to remove cell debris and stored at −80° C. The rotavirus was assayed and found to contain […] plaque forming units (pfu)/ml.
The infection assay used was based on a number of published assays (Scott et al 1979; Smith et al 1979; Guarino et al 1996; Superb et al 2001). Confluent HT29 cells grown in DMEM (seeded at 3×10^5/ml in 96 well plates) were washed twice in sterile PBS. Doubling dilutions of each of the products to be screened (initial concentration 5 mg/ml) were made in the plate in 50 μl volumes of DMEM. Virus was added (10^4 pfu/well) to all wells except the cells only control and plates were then incubated for two hours in 5% CO2 at 37° C. Other controls included virus plus cells, lipids only, pure GM3 and pure GD3. Following the two-hour incubation trypsin was added to all the wells containing virus at a concentration of 2 μg/ml—this step cleaves VP4 to polypeptides VP8 and VP5 and is needed for the virion to penetrate into the cells' interior. Plates were incubated at 37° C. in 5% CO2 for seven days and were checked daily for cytopathic effect in the virus only control wells. Media was removed and plates washed in sterile PBS, air-dried and fixed with methanol for one minute. Plates were air dried and then stained with 100 μl/well of 1% crystal violet (351884W, BDH, England) for five minutes. Plates were washed four times with sterile water to remove excess stain. 100 μl of acetic acid per well was added to solubilise the stain and absorbance was read at a wavelength of 595 nm in a Biorad ELISA plate reader. Each sample was assayed on a minimum of three separate occasions and the percentage of uninfected cells calculated.
Statistical analysis was performed using an unpaired Student t test (InStat for MacIntosh) to compare the effect of the lipid products derived from bovine milk with the virus only control at the lowest dilution of the product.

B1: bovine lactadherin: bovine milk fat globule membrane glycoprotein, cited from Kvistgaard et al, 2004 (protein, UniProt Q95114 19-427, looked up)
Lactadherin: ASGDFCDSSLCLHGGTCLLNEDRTPPFYCLCPEGFTGLLCNETEHGPCFPNPCHNDAECQVTDDSHRGDVFIQYICKCPLGYVGIHCETTCTSPLGMQTGAIADSQISASSMHLGFMGLQRWAPELARLHQTGIVNAWTSGNYDKNPWIQVNLMRKMWVTGVVTQGASRAGSAEYLKTFKVAYSTDGRQFQFIQVAGRSGDKIFIGNVNNSGLKINLFDTPLETQYVRLVPIICHRGCTLRFELLGCELNGCTEPLGLKDNTIPNKQITASSYYKTWGLSAFSWFPYYARLDNQGKFNAWTAQTNSASEWLQIDLGSQKRVTGIITQGARDFGHIQYVAAYRVAYGDDGVTWTEYKDPGASESKIFPGNMDNNSHKKNIFETPFQARFVRIQPVAWHNRITLRVELLGC
In the case of B1, the “prevention of human Wa rotavirus infection in vitro” value (“prevention” below) (human Wa rotavirus) is listed as “could not prevent”.

B2: bovine MUC1 mucin: bovine milk mucin, cited from Kvistgaard et al, 2004 (protein, UniProt Q8WML4 23-580, looked up)
Mucin-1: NVPTLTTSDSINPRRTTPVSTTQSSPTSSPTKETSWSTTTTLLTASSPAPSPAASPGHDGASTPTSSPAPSPAASPGHDGASTPTSSPAPSPAASPGHDGASTPTSSPAPSPAASPGHDGASTPTSSPAPSPAASPGHNGTSSPTGSPAPSPAASPGHDGASTPTSSPAPSPAASPGHNGTSSPTGSPAPSPAASPGHDGASTPTSSPAPSPAASPGHNGTSSPTGSPAPSPTASPGHDSAPSLTSSPAPSPTASPGQHGASSPTSSDTSSMTTRSMSSSMVTSAHKGTSSRATMTPVSKGTPSSVPSSETAPTAASHITRTAASSPSIALSTSSNPKTSQQLSVRVSLYFLSFRITNLQFNSSLENPQTSYYQELQRSIWGLILQIYKQRDFLGLSEIKFRPGSVVVELTLAFREGTTAEWVKAQFSQLEAHAASYNLTISGVSVYSAPFPSSAQAGSGVPGWGIALLVLVCVLVALAIIYLIALVVCQCGRKKCEQLDVFPTLDAYHPMSEYSTYHTHGRYVPPGSTKRSPYEEVSAGNGGSNLSYTNLAATSANL
For B2, the “prevention” value (human Wa rotavirus) is listed as “could not prevent”.

B3: bovine lactoferrin: bovine milk protein, result cited from Kvistgaard et al, 2004 (protein, UniProt P24627 20-708, looked up)
Lactotransferrin: APRKNVRWCTISQPEWFKCRRWQWRMKKLGAPSITCVRRAFALECIRAIAEKKADAVTLDGGMVFEAGRDPYKLRPVAAEIYGTKESPQTHYYAVAVVKKGSNFQLDQLQGRKSCHTGLGRSAGWIIPMGILRPYLSWTESLEPLQGAVAKFFSASCVPCIDRQAYPNLCQLCKGEGENQCACSSREPYFGYSGAFKCLQDGAGDVAFVKETTVFENLPEKADRDQYELLCLNNSRAPVDAFKECHLAQVPSHAVVARSVDGKEDLIWKLLSKAQEKFGKNKSRSFQLFGSPPGQRDLLFKDSALGFLRIPSKVDSALYLGSRYLTTLKNLRETAEEVKARYTRVVWCAVGPEEQKKCQQWSQQSGQNVTCATASTTDDCIVLVLKGEADALNLDGGYIYTAGKCGLVPVLAENRKSSKHSSLDCVLRPTEGYLAVAVVKKANEGLTWNSLKDKKSCHTAVDRTAGWNIPMGLIVNQTGSCAFDEFFSQSCAPGADPKSRLCALCAGDDQGLDKCVPNSKEKYYGYTGAFRCLAEDVGDVAFVKNDTVWENTNGESTADWAKNLNREDFRLLCLDGTRKPVTEAQSCHLAVAPNHAVVSRSDRAAHVKQVLLHQQALFGKNGKNCPDKFCLFKSETKNLLFNDNTECLAKLGGRPTYEEYLGTEYVTAIANLKKCSTSPLLEACAFLTR
For B3, the “prevention” value (human Wa rotavirus) is listed as “could not prevent”.

B4: Lactoferrin: lactoferrin provided by Fonterra Co-operative Group Limited; comparative material (protein, UniProt P24627 20-708, looked up)
Lactotransferrin: APRKNVRWCTISQPEWFKCRRWQWRMKKLGAPSITCVRRAFALECIRAIAEKKADAVTLDGGMVFEAGRDPYKLRPVAAEIYGTKESPQTHYYAVAVVKKGSNFQLDQLQGRKSCHTGLGRSAGWIIPMGILRPYLSWTESLEPLQGAVAKFFSASCVPCIDRQAYPNLCQLCKGEGENQCACSSREPYFGYSGAFKCLQDGAGDVAFVKETTVFENLPEKADRDQYELLCLNNSRAPVDAFKECHLAQVPSHAVVARSVDGKEDLIWKLLSKAQEKFGKNKSRSFQLFGSPPGQRDLLFKDSALGFLRIPSKVDSALYLGSRYLTTLKNLRETAEEVKARYTRVVWCAVGPEEQKKCQQWSQQSGQNVTCATASTTDDCIVLVLKGEADALNLDGGYIYTAGKCGLVPVLAENRKSSKHSSLDCVLRPTEGYLAVAVVKKANEGLTWNSLKDKKSCHTAVDRTAGWNIPMGLIVNQTGSCAFDEFFSQSCAPGADPKSRLCALCAGDDQGLDKCVPNSKEKYYGYTGAFRCLAEDVGDVAFVKNDTVWENTNGESTADWAKNLNREDFRLLCLDGTRKPVTEAQSCHLAVAPNHAVVSRSDRAAHVKQVLLHQQALFGKNGKNCPDKFCLFKSETKNLLFNDNTECLAKLGGRPTYEEYLGTEYVTAIANLKKCSTSPLLEACAFLTR
In the case of B4, the “Percentage of HT29 cells uninfected by rotavirus” value (“Percentage” below) ([1]; 0.3125 mg/ml) is reported as 60 +/− 8 ** %, the “Percentage” value ([1]; 0.625 mg/ml) is reported as 65 +/− 8 *** % and the “Percentage” value ([1]; 1.25 mg/ml) is reported as 73 +/− 12 *** %. The “Percentage” value ([1]; 2.5 mg/ml) was 87 +/− 4 *** % and the “Percentage” value ([1]; 5 mg/ml) was 67 +/− 4 *** %.
